Assay results as given in the NTF2 design screens of Basanta et al. (2020).

Experiment: protease stability score; higher = more stable; yeast display proteolysis, trypsin and chymotrypsin;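 also: relative to predicted unfolded state with 0 unfolded-like and 1 meaning tenfold more protease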

| Sequence | protease stability score |
| --- | --- |
| TEVEKKAREINKELSSALLTGDEHIMRRLADPHVRIFFNGQHLVGMEEMMKVLLHLRIKWKDIKIEDVKIQGDFMHIDTIEHGILEVGDKRIEFHREVEIYITKINGRWMIEELTYR | 1.34 |
| DDRESIAEAVIRHMVEDFRTGNEDNMKRLFDPNTQLRYGDKTHHGWEDVVELLYHDIKHFGIKHVSVDRISVIGEKIHIDMRVEVGDKELTLHFTVDKINGKWKFESVERR | 0.849 |
| KEEEEEARQAWDLLHNIMKTGDEHQLMSLVDPNYLNIAEGREFHGREVFYHYMHELRVKWEHMHLKDYRVYNGRIRTEEHLVVHYEYGDKHDSLRTDVHLKDVKINGRWRVRHLHII | 0.78 |
| SEDREEYHELLKRMIHALMTGDWRDFEKLFDPNARLEVNGQIFHGREDVVKWLRDVLKRYDHIEHFRIRTEEYQGDKIIMDGELHKVINGQHIVTRVRIEVWVVDGRLKRRSEREE | 1.51 |
| SHWDQRLEELSKLVVDHLNTGDFEEIKRLVDPHMRLEIGDKTRIGREQIHEWLEEFLRRYKNARVEIRIEHHELYGEKFFADTRLNLHVGDKHHHFDTRLEIHVIDGKIHSMSMRIH | 1.1 |
| SEEEEHIHRLARLYWRLWETGDEETLAHLMDPNVRQIIHVGDKEFHNVGREKIIKVTKHVFEKLGVKHIKIRDMRVINGVVEIDTEVNVDGRTFDTRIKVLIVDGRIHELRWIVE | 1.65 |
| DEDAHLIEHLVHLMLHATNTGDEDILKDLMDPNMKIQIGDKEFHGREEFEEMHRRADHLETTDWKLHSVDIQGDKIHLDTRVDRVIIINGKITREDTRTELDVRKIDGRWVVTRISVE | 1.27 |
| DSHEETNKFFFELTTHALETGDFDFLKKLADPHVRLNIDGRDTIGMDFLLRLWRELGFKHQHLKDMKIYGNWTYLDMHLHFNGREHDIHLNFKIFNGQMESIDVHIR | 1.32 |
| DEEEEELRELARISLELWITGDEDHLRHLMDPRTLLIVDGQEVHGREEAIKWVAFHLLKIKGLTLELKDFDVINGRLHLHVTRRVNGVRRRLRIHIEIIDGRIKTIRITID | 2.28 |
| SEEKELLEKISELLLKLLKTGDEETWNKLADPNMRLNVNGKDVHGWHKMIKLRHEVWEKLGIDHLEVKTIDIINGRVRIESRLVVNGRFIHIELEFHVINGRNEEEHLFVR | 0.418 |
| SELEEIAEEVARRFSHFIETGDEEKLWKYFDPHVKIDIDIDGRTKELHGMERFVFFIRYLGLDRVELRDHRIEIQGEKAILDGTTHINGRTRKTNFHIFVFNGRIKFMQVHII | 1.48 |
| SELEEEALHLMELYLKSVMTGDEESIRRLADPNVRFEVDINGKKLELHGWKEETKFWREIWVRELRVRDKDAIGNKVHSVVEINVDVNGKEIRRESEEHYIIVDGRLHIISFRVN | 1.27 |
| RDIEEINKRALESWKHALETGDEDTMEELLDPHVRVEDEHEMHHGRSAFHLWIKRVDHFRSLHIRETRIVGDKVDNNVEVDGTINGQDRLIEIRLVLVKFNGKWKFRSIHFK | 1.38 |
| SHVEEESREAIERFEHLLRTGNEEELENLADPNVLLRVNGKEIWGRERAIKHIIHEMTRVKNMKLTSESFEISENHIHFKFTLTINGKIIHLEIVTKKVDGRWVIKHVEFH | 1.32 |
| HEEHESLRRATRHELQTLETGDEDLFEKLVDPNYKVVINGVELHGMHELRRWIIELRIDDFELHDVNVVNGRASIDGTMHTHVNGQRLERKVRIHIEKINGRWVRREYIYH | 0.726 |
| DEEERLDEEIMERIHKAYATGDFDEIKRLIDPHVRSDINGVDTHGRDDAIHYLHHVYRRLGFKHFELKHVESYDGRVHTDGWLRFNGQERRVEFRWQVIDGRIHSVSLRMK | 0.975 |
| NEEEEDMEHATKEHMELWRTGDEKRITELADPNVRVHVGEKEYHGREKLSEHIMRLGFDHVELTHFDVQGEKVISHIRVRFNGRDIEFLLIVLKVDGRWYEEQVNIRVS | 0.66 |
| SEEEELAMRIAREVLELWYTGDEDRLTELADPNTRVIFQYGDKEISFHGREWYSKIMLEWRIERVDLRSERAIGDKYELDVHFVGHINGKRHNYRFHIHMLVVNGKLKNIEVRVK | 2.2 |
| SEEEEEVHKFMEDLARAYLTGDEKRFRELVDPNVKSNIDGQTIHGREELTKWVSDSAKKYGVDHLEMRVRTINIQGNKAHMDGEIVLEYGDKRVSRQVEIVVTKINGQWLLEREHIH | 1.88 |
| SEEERDLKEEADRFLDHVRTGDEDTLRDLIDPNVKLRVDQGDKDIELHGREEVIKFLVHMRIHHVKLNNFRIQGNKIIHDIRVDGTINGVRRDRREHLILHIVDGKIKIVEIRVE | 1.28 |
